Biological target: actin filaments (UniProt P68135 1-377)
Assay: co-sedimentation

Kd: 3.53 µM
B1: Dys ΔH2-R19 (other)
chain: MLWWEEVEDCYEREDVQKKTFTKWINAQFSKFGKQHIDNLFSDLQDGKRLLDLLEGLTGQKLPKEKGSTRVHALNNVNKALRVLQKNNVDLVNIGSTDIVDGNHKLTLGLIWNIILHWQVKNVMKTIMAGLQQTNSEKILLSWVRQSTRNYPQVNVINFTSSWSDGLALNALIHSHRPDLFDWNSVVSQHSATQRLEHAFNIAKCQLGIEKLLDPEDVATTYPDKKSILMYITSLFQVLPQQVSIEAIQEVEMLPRTSSKVTREEHFQLHHQMHYSQQITVSLAQGYEQTSSSPKPRFKSYAFTQAAYVATSDSTQSPYPSQHLEAPRDKSLDSSLMETEVNLDSYQTALEEVLSWLLSAEDTLRAQGEISNDVEEVKEQFHAHEGFMMDLTSHQGLVGNVLQLGSQLVGKGKLSEDEEAEVQEQMNLLNSRWECLRVASMEKQSKLHKVLMDLQNQKLKELDDWLTKTEERTKKMEEEPFGPDLEDLKCQVQQHKVLQEDLEQEQVRVNSLTHMVVVVDESSGDHATAALEEQLKVLGDRWANICRWTEDRWIVLQDILLKWQHFTEEQCLFSTWLSEKEDAMKNIQTSGFKDQNEMMSSLHKISTLKIDLEKKKPTMEKLSSLNQDLLSALKNKSVTQKMEIWMENFAQRWDNLTQKLEKSSAQISQPDRAPGLSTTGASASQTVTLVTQSVVTKETVISKLEMPSSLLLEVPALADFNRAWTELTDWLSLLDRVIKSQRVMVGDLEDINEMIIKQKATLQDLEQRRPQLEELITAAQNLKNKTSNQEARTIITDRIERIQIQWDEVQEQLQNRRQQLNEMLKDSTQWLEAKEEAEQVIGQVRGKLDSWKEGPHTVDAIQKKITETKQLAKDLRQRQISVDVANDLALKLLRDYSADDTRKVHMITENINTSWGNIHKRVSEQEAALEETHRLLQQFPLDLEKFLSWITEAETTANVLQDASRKEKLLEDSRGVRELMKPWQDLQGEIETHTDIYHNLDENGQKILRSLEGSDEAPLLQRRLDNMNFKWSELQKKSLNIRSHLEASSDQWKRLHLSLQELLVWLQLKDDELSRQAPIGGDFPAVQKQNDIHRAFKRELKTKEPVIMSTLETVRIFLTEQPLEGLEKLYQEPRELPPEERAQNVTRLLRKQAEEVNAEWDKLNLRSADWQRKIDEALERLQELQEAADELDLKLRQAEVIKGSWQPVGDLLIDSLQDHLEKVKALRGEIAPLKENVNRVNDLAHQLTTLGIQLSPYNLSTLEDLNTRWRLLQVAVEDRVRQLHEAHRDFGPASQHFLSTSVQGPWERAISPNKVPYYINHETQTTCWDHPKMTELYQSLADLNNVRFSAYRTAMKLRRLQKALCLDLLSLSAACDALDQHNLKQNDQPMDILQIINCLTTIYDRLEQEHNNLVNVPLCVDMCLNWLLNVYDTGRTGRIRVLSFKTGIISLCKAHLEDKYRYLFKQVASSTGFCDQRRLGLLLHDSIQIPRQLGEVASFGGSNIEPSVRSCFQFANNKPEIEAALFLDWMRLEPQSMVWLPVLHRVAAAETAKHQAKCNICKECPIIGFRYRSLKHFNYDICQSCFFSGRVAKGHKMHYPMVEYCTPTTSGEDVRDFAKVLKNKFRTKRYFAKHPRMGYLPVQTVLEGDNMETPVTLINFWPVDSAPASSPQLSHDDTHSRIEHYASRLAEMENSNGSYLNDSISPNESIDDEHLLIQHYCQSLNQDSPLSQPRSPAQILISLESEERGELERILADLEEENRNLQAEYDRLKQQHEHKGLSPLPSPPEMMPTSPQSPRDAELIAEAKLLRQHKGRLEARMQILEDHNKQLESQLHRLRQLLEQPQAEAKVNGTTVSSPSTSLQRSDSSQPMLLRVVGSQTSESMGEEDLLSPPQDTSTGLEEVMEQLNNSFPSSRGRNAPGKPMREDTM
